Results as given in article doi:10.1101/2022.08.03.502613.

Target: γ-tubulin ring complex (γ-TuRC) purified using GCP3-GFP-SII (human (endogenous in HEK293T)) (UniProt Q96CW5)
Assay: single-molecule colocalisation by TIRF microscopy

Q: What does the source list for “mCherry-CDK5RAP2 (full-length, human) (from UniProt Q96SN8 1-1893) (natural protein)”?
A: % of CDK5RAP2-positive dots colocalizing with γ-TuRCs, with tubulin: 13%; % of CDK5RAP2-positive dots colocalizing with γ-TuRCs, without tubulin: 41%
